Test results from article PMC3230378 (The EMBO Journal, 2011).
One block for each molecule: values may come before it.

Assays:
Assay in all cases: SPR
[1] = biological target: NGL1-r1 mutant (human NGL1_(LRR–Ig) with the loop I binding region of NGL2) (human) (UniProt Q9HCJ2)
[2] = biological target: mouse NGL3_(LRR–Ig) (mouse) (UniProt P0C192)
mouse NGL3_(LRR–Ig) = biological target: T1, mouse NGL3_(LRR–Ig) (mouse, UniProt P0C192 39-455)
T1 sequence (looked up): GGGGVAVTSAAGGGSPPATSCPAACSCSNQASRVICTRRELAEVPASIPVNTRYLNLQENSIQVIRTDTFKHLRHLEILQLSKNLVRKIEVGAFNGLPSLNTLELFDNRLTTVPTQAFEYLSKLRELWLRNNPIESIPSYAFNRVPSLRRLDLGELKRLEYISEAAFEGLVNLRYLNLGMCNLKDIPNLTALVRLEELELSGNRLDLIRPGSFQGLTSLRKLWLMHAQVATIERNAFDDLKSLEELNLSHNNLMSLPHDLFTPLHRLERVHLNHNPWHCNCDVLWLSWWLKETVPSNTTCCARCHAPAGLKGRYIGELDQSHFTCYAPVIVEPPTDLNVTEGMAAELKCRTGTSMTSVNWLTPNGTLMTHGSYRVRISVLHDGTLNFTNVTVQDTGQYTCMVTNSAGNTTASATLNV

fold decrease of binding against WT NGL1 [1]: > 10 fold
Kd [2]: > 100 µM
Molecule: human NetrinG1_(Lam–EGF1/4), wild type (domain or fragment)

Kd (mouse NGL3_(LRR–Ig)): > 100 µM
B1: human NetrinG2_(Lam–EGF1), wild type (domain or fragment, UniProt Q96CW9 18-345, looked up)
chain: DYDICKSWVTTDEGPTWEFYACQPKVMRLKDYVKVKVEPSGITCGDPPERFCSHENPYLCSNECDASNPDLAHPPRLMFDKEEEGLATYWQSITWSRYPSPLEANITLSWNKTVELTDDVVMTFEYGRPTVMVLEKSLDNGRTWQPYQFYAEDCMEAFGMSARRARDMSSSSAHRVLCTEEYSRWAGSKKEKHVRFEVRDRFAIFAGPDLRNMDNLYTRLESAKGLKEFFTLTDLRMRLLRPALGGTYVQRENLYKYFYAISNIEVIGRCKCNLHANLCSMREGSLQCECEHNTTGPDCGKCKKNFRTRSWRAGSYLPLPHGSPNACA
